Test results reported in patent US20240254195A1 (35PHARMA, published 2024).

Assays:
Test in all cases: cell-based or functional assay
[1] = molecular target: T1, recombinant human activin A (human, UniProt P08476 311-426)
T1 sequence (looked up): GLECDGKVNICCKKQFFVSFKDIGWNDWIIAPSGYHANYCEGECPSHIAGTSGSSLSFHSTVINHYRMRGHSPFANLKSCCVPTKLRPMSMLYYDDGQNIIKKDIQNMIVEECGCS

activin B = molecular target: T2, activin B (UniProt P09529 293-407)
T2 sequence (looked up): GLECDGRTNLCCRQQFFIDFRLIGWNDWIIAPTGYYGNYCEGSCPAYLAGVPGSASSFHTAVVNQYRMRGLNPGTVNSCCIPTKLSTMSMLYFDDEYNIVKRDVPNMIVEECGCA

GDF-8 = molecular target: T3, GDF-8 (UniProt O14793 267-375)
T3 sequence (looked up): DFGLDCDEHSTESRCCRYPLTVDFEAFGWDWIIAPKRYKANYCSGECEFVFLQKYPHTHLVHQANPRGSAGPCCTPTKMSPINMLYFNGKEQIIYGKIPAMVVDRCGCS

GDF-11 = molecular target: T4, GDF-11 (UniProt O95390 299-407)
T4 sequence (looked up): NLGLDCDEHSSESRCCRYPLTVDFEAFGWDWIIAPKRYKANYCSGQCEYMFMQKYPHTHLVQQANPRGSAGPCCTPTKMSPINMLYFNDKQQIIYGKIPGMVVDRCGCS

BMP-9 = molecular target: T5, BMP-9 (UniProt Q9UK05 320-429)
T5 sequence (looked up): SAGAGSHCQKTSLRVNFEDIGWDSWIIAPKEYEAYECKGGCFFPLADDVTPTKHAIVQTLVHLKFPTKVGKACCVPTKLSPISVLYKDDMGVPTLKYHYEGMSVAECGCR

BMP-10 = molecular target: T6, BMP-10 (UniProt O95393 317-424)
T6 sequence (looked up): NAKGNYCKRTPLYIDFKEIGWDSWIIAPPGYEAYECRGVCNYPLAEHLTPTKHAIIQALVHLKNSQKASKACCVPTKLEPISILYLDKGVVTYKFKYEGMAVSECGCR

B1: P1372 (Fc fusion)
chain: ETRECIYYNANWELERTNQSGLERCEGEQDKRWHCYASWRNSSGTIELVKKGCWLDDFNCYDRQECVATEENPQVYFCCCEGNFCNERFTHLPEAGGPEVTYEPPPTGGGGSGGGGSGGGGTHTCPPCPAPELLGGPSVFLFPPKPKDTLYITREPEVTCVVVDVSHEDPEVKFNWYVDGVEVHNAKTKPREEQYNSTYRVVSVLTVLHQDWLNGKEYKCKVSNKALPAPIEKTISKAKGQPREPQVYTLPPSRDELTKNQVSLTCLVKGFYPSDIAVEWESNGQPENNYKTTPPVLDSDGSFFLYSKLTVDKSRWQQGNVFSCSVMHEALHNHYTQKSLSLSPG
B1 was tested, and the “Activin A IC50” value [1] was 0.56 nM, the “Activin B IC50” value (activin B) was 2 nM and the “GDF-8 IC50” value (GDF-8) was 0.18 nM. For the same binder, the “GDF-11 IC50” value (GDF-11) was 0.53 nM, the “BMP-9 IC50” value (BMP-9) was greater than 1000 nM and the “BMP-10 IC50” value (BMP-10) was greater than 100 nM.

B2: P1375 (Fc fusion)
chain: ETRECIYYNANWELERTNQSGLERCEGEQDKRWHCYASWRNSSGTIELVKKGCWLDDFNCYDRQECVATEENPQVYFCCCEGNFCNERFTHLPEAGGPEVTYEPPPTGGGGSGGGGSGGGGSGGGGTHTCPPCPAPELLGGPSVFLFPPKPKDTLYITREPEVTCVVVDVSHEDPEVKFNWYVDGVEVHNAKTKPREEQYNSTYRVVSVLTVLHQDWLNGKEYKCKVSNKALPAPIEKTISKAKGQPREPQVYTLPPSRDELTKNQVSLTCLVKGFYPSDIAVEWESNGQPENNYKTTPPVLDSDGSFFLYSKLTVDKSRWQQGNVFSCSVMHEALHNHYTQKSLSLSPG
In the case of B2, the “Activin A IC50” value [1] is reported as 0.53 nM, the “Activin B IC50” value (activin B) is reported as 2 nM and the “GDF-8 IC50” value (GDF-8) is reported as 0.33 nM. The “GDF-11 IC50” value (GDF-11) was 0.39 nM, the “BMP-9 IC50” value (BMP-9) was greater than 1000 nM and the “BMP-10 IC50” value (BMP-10) was greater than 100 nM.
